2 substances from US20240261333A1, “NOVEL TARGETS FOR ENHANCING ANTI-TUMOR IMMUNITY” (THE BROAD INSTITUTE, INC., priority 2021, published 2024) can be followed below.

The target of one test is LTF (UniProt P02788). Kind of test: co-IP with anti-FLAG, mass spectrometry; C-FLAG B3GNT2.
Another test addresses ABCF1 (UniProt Q8NE71). Briefly: co-IP, anti-FLAG, lysate of C-FLAG B3GNT2 cells, mass spectrometry.
In another test the target is ARPC2 (UniProt O15144). Described as above.
The target in the next test is CALM2 (UniProt P0DP24). The description is as above.
In the next test the target is CEP170 (UniProt Q5SW79). The description is as above.
In another test the target is CNP (UniProt P09543). The description is as above.
In test [1] the target is CSPG4 (UniProt Q6UVK1). The description is as above.
The next test deals with DPM1 (UniProt O60762). The test is described as above.
The target of the next test is GNAS (UniProt Q5JWF2). The description is as above.
Another test deals with HSPA5 (UniProt P11021). Described as above.
Test [2] concerns the target HSPH1 (UniProt Q92598). Described as above.
The next test deals with LAMB1 (UniProt P07942). The description is as above.
Another test concerns the target LOXL4 (UniProt Q96JB6). Described as above.
The target in the next test is LRP2 (UniProt P98164). Described as above.
For test [3], the target named is LRPPRC (UniProt P42704). Described as above.
A further test has as its target MAP1B (UniProt P46821). The test is described as above.
The next test addresses MYO1D (UniProt O94832). The test is described as above.
A further test has as its target NCL (UniProt P19338). The description is as above.
Another test addresses OS9 (UniProt Q13438). The test is described as above.
In a further test the target is PGK1 (UniProt P00558). The description is as above.
Another test deals with PPIB (UniProt P23284). The test is described as above.
The target of another test is RAB1B (UniProt Q9H0U4). The description is as above.
A further test concerns the target RBMX (UniProt P38159). The description is as above.
In the next test the target is RNASE1 (UniProt P07998). The test is described as above.
A further test addresses RPL18A (UniProt Q02543). The test is described as above.
The next test addresses RPL29 (UniProt P47914). The test is described as above.
A further test deals with SERPINE2 (UniProt P07093). The test is described as above.
For a further test, the target named is SLC25A1 (UniProt P53007). The test is described as above.
The target of another test is SLC25A10 (UniProt Q9UBX3). The description is as above.
In a further test the target is SLC25A3 (UniProt Q00325). The description is as above.
In another test the target is SMN1 (UniProt Q16637). The description is as above.
A further test addresses TM9SF3 (UniProt Q9HD45). The description is as above.
The target of the next test is TNC (UniProt P24821). The description is as above.
Test [4] concerns the target TRIM28 (UniProt Q13263). The description is as above.
Test [5] concerns the target CSPG4 (UniProt Q6UVK1). Briefly: co-IP, anti-FLAG, lysate of N-FLAG B3GNT2 cells, mass spectrometry.
Test [6] addresses HSPH1 (UniProt Q92598). The description is as above.
The target of test [7] is LRPPRC (UniProt P42704). Described as above.
The next test concerns the target SEC16A (UniProt O15027). The test is described as above.
For test [8], the target named is TRIM28 (UniProt Q13263). The description is as above.
TRIM28, sequence (Q13263 2-835 limits assumed): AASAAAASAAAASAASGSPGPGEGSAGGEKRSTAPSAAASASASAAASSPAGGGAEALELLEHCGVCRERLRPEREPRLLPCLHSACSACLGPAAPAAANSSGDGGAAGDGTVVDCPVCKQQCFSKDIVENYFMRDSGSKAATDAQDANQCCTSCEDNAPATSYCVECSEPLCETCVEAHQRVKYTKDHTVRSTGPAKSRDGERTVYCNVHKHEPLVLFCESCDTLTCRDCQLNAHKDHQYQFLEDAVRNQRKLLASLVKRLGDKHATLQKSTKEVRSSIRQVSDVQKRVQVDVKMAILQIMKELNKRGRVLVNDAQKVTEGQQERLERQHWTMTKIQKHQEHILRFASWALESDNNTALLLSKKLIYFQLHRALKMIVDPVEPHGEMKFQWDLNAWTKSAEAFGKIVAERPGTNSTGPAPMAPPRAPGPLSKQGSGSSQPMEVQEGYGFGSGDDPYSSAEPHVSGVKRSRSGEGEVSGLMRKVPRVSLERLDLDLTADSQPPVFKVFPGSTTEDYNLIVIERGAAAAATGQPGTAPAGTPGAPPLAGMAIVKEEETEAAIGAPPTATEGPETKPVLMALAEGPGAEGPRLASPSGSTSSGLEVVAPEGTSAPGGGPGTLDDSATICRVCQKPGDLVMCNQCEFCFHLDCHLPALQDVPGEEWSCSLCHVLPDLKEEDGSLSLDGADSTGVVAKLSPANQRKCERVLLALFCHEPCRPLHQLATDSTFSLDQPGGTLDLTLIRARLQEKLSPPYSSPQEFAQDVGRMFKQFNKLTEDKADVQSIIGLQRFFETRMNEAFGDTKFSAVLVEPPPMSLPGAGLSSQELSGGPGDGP

CSPG4, sequence (Q6UVK1 30-2322 limits assumed): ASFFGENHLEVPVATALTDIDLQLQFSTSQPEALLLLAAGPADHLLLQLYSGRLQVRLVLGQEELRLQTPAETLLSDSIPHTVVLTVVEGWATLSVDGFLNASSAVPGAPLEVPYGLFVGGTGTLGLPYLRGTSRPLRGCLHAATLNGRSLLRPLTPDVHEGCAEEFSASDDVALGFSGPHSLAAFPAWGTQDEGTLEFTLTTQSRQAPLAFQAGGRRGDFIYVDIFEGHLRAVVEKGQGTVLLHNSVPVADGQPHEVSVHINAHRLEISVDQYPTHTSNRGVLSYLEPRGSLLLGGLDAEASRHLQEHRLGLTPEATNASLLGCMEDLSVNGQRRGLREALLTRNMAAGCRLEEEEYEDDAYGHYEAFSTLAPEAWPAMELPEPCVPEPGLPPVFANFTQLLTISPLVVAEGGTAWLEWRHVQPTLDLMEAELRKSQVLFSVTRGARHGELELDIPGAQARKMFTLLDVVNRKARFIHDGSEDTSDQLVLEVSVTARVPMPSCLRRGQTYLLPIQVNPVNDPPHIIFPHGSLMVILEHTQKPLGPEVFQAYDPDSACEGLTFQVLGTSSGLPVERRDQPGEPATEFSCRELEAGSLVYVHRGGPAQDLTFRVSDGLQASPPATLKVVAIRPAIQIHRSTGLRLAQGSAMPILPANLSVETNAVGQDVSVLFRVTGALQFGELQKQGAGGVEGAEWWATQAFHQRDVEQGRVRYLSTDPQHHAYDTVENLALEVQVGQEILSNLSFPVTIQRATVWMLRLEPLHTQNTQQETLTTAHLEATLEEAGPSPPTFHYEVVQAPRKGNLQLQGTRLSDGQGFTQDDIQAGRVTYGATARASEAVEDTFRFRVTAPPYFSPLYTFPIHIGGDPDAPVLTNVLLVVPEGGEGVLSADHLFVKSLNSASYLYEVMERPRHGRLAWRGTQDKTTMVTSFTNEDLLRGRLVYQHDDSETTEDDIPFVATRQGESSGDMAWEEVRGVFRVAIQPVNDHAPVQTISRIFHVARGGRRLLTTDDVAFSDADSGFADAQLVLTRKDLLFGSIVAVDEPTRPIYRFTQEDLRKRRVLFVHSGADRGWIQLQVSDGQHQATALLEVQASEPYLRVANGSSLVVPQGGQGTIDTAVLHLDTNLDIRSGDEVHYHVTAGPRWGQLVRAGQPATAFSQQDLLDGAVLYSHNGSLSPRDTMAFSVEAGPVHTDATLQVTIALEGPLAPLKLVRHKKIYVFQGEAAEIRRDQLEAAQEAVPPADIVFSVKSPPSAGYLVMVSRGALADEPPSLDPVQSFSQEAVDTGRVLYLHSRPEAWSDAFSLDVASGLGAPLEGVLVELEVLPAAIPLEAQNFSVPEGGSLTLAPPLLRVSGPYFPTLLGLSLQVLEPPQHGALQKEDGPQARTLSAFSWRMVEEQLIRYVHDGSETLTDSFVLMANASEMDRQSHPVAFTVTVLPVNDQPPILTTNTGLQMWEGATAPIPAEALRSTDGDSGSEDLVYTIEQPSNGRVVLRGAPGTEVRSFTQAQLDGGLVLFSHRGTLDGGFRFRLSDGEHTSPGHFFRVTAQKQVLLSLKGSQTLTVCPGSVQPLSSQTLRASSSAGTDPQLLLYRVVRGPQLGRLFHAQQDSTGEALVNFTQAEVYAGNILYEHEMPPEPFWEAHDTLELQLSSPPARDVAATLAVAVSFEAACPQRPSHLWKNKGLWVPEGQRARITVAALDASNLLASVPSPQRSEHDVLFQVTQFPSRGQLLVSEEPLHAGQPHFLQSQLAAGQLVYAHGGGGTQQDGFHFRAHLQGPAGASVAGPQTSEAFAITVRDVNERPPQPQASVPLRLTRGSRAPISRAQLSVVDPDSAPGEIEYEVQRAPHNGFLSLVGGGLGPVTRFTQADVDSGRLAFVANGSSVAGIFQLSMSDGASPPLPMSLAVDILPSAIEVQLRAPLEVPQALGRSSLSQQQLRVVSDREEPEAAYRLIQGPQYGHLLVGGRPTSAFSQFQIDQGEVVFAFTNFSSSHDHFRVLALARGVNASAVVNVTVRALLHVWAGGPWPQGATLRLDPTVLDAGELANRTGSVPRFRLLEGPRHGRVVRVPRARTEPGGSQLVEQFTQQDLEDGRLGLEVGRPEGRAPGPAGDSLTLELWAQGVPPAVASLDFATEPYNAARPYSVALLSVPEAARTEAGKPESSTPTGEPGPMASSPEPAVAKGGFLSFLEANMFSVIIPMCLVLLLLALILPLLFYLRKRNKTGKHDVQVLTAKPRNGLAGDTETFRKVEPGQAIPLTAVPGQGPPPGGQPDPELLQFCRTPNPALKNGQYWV
HSPH1, sequence (Q92598 other isoform, or with tags, fused parts or gaps limits assumed): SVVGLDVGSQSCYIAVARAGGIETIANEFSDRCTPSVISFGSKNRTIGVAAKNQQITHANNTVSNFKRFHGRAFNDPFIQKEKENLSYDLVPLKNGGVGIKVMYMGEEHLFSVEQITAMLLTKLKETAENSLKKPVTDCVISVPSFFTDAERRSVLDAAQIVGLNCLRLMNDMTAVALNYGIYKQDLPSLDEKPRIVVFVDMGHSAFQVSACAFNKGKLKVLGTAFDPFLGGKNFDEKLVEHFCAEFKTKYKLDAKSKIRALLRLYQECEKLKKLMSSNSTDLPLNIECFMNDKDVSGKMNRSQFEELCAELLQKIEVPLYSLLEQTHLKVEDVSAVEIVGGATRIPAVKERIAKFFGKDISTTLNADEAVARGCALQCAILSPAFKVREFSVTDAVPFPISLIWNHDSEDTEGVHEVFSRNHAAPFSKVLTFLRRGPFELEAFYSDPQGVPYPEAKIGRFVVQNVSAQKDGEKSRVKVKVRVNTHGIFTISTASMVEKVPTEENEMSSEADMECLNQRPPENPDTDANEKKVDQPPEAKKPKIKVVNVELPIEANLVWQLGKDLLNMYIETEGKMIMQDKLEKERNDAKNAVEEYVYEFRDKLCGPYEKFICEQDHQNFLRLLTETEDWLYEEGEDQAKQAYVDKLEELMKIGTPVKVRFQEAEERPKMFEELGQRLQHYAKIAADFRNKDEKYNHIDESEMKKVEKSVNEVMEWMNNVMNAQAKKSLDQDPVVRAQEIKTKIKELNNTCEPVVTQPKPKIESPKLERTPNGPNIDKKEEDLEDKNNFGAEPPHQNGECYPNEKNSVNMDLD
ABCF1, sequence (Q8NE71 whole entry): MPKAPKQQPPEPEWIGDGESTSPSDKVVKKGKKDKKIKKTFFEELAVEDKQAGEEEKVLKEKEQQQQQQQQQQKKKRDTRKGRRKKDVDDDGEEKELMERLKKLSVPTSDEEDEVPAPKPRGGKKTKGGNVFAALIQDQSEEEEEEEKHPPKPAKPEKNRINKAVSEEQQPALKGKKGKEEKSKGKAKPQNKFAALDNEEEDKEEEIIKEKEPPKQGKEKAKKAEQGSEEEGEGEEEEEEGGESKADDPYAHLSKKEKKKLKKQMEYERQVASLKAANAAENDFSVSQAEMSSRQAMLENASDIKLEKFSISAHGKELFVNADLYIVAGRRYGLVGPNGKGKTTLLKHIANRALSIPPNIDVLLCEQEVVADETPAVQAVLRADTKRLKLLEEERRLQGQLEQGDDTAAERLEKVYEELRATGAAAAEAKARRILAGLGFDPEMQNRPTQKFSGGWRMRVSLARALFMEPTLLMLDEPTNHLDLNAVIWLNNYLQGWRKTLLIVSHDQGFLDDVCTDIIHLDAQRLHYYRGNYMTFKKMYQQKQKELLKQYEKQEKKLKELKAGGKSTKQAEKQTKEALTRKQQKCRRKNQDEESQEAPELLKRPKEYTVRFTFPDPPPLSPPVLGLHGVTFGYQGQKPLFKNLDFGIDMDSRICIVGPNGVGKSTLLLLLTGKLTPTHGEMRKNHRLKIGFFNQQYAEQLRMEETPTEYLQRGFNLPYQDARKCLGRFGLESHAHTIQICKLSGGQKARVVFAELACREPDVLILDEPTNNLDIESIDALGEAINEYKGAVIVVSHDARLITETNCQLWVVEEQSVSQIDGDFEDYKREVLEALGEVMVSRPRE
SLC25A3, sequence (Q00325 50-362 limits assumed): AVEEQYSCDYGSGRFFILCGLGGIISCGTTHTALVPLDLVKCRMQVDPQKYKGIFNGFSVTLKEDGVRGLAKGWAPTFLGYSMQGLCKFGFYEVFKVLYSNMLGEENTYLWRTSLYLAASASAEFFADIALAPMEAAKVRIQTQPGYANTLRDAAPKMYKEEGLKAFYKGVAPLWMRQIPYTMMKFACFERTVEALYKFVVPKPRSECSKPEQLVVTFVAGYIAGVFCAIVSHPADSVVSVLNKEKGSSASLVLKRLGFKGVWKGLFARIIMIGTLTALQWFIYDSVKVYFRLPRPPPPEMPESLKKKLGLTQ

In turn, “C-terminal FLAG tagged B3GNT2 (from UniProt Q9NY97 1-397) (enzyme)” showed a co-IP mass spectrometry count with LTF of 7. Besides, the co-IP/MS count with ABCF1 was found to be 2; with ARPC2, 2; with CALM2, 2; with CEP170, 2; with CNP, 7; with CSPG4 [1] it was 12. The co-IP/MS count is 8 in the test with DPM1; 2 with GNAS; 130 in the test with HSPA5; 7 with HSPH1 [2]; 2 with LAMB1; 8 in the test with LOXL4. The co-IP/MS count with LRP2 is 2; with LRPPRC [3], 9; with MAP1B, 2; with MYO1D, 2; with NCL, 11; with OS9, 9. Further, the co-IP/MS count with PGK1 was 2; in the test with PPIB it was 2; with RAB1B, 2; with RBMX, 2; with RNASE1, 2; in the test with RPL18A, 12. The co-IP/MS count with RPL29 turned out to be 6; in the test with SERPINE2, 11; with SLC25A1, 8; in the test with SLC25A10, 6; with SLC25A3, 9; with SMN1, 14. The co-IP/MS count in the test with TM9SF3 is 11; with TNC, 10; with TRIM28 [4], 8.
Take “N-terminal FLAG tagged B3GNT2 (from UniProt Q9NY97 1-397) (enzyme)”: the co-IP/MS count worked out at 2 with CSPG4 [5]; 8 with HSPH1 [6]; 2 with LRPPRC [7]; 2 with SEC16A; 4 with TRIM28 [8].
